Measured values reported in PMC9871250, “Identification of an indole biodegradation gene cluster from Providencia rettgeri and its contribution in selectively biosynthesizing Tyrian purple” (Frontiers in Bioengineering and Biotechnology, 2023).

Assays:
[1] = substrate: c1ccc2[nH]ccc2c1; assay: indigo formation by LC-MS; assay type: biochemical, Methylophaga thalassica; details: pH 7.5, 30 °C, 250 μM NADH, 0.6% glucose with GDH recycling, unit μm [sic], meant μM, table title says NADH oxidation, methods say indigo/Tyrian purple formation
Text: indigo formation by LC-MS on MaFMO

[2] = substrate: Brc1ccc2cc[nH]c2c1; assay: Tyrian purple formation by LC-MS; assay type: biochemical, Methylophaga thalassica; details: pH 7.5, 30 °C, 250 μM NADH, 0.6% glucose with GDH recycling, unit μm [sic], meant μM, table title says NADH oxidation, methods say indigo/Tyrian purple formation
Text: Tyrian purple formation by LC-MS on MaFMO

B1: MaFMO (Methylophaga thalassica) (protein)
chain: MATRIAILGAGPSGMAQLRAFQSAQEKGAEIPELVCFEKQADWGGQWNYTWRTGLDENGEPVHSSMYRYLWSNGPKECLEFADYTFDEHFGKPIASYPPREVLWDYIKGRVEKAGVRKYIRFNTAVRHVEFNEDSQTFTVTVQDHTTDTIYSEEFDYVVCCTGHFSTPYVPEFEGFEKFGGRILHAHDFRDALEFKDKTVLLVGSSYSAEDIGSQCYKYGAKKLISCYRTAPMGYKWPENWDERPNLVRVDTENAYFADGSSEKVDAIILCTGYIHHFPFLNDDLRLVTNNRLWPLNLYKGVVWEDNPKFFYIGMQDQWYSFNMFDAQAWYARDVIMGRLPLPSKEEMKADSMAWREKELTLVTAEEMYTYQGDYIQNLIDMTDYPSFDIPATNKTFLEWKHHKKENIMTFRDHSYRSLMTGTMAPKHHTPWIDALDDSLEAYLSDKSEIPVAKEA
notes: synthesized gene, His-tag, E. coli BL21(DE3), Ni-NTA; primers give start MATRIAI, end VAKEA
- Km [1]: 242.2 µM
- kcat [1]: 0.000246 s⁻¹
- kcat/Km [1]: 1 M⁻¹ s⁻¹
- Km [2]: 303.65 µM
- kcat [2]: 0.000521 s⁻¹
- kcat/Km [2]: 1.67 M⁻¹ s⁻¹
